Laboratory results: US20240100162A1 (Amgen, published 2024)

B1: TCR3 (TCR, V domains shown)
V domain 1: AQKVTQAQTEISVVEKEDVTLDCVYETRDTTYYLFWYKQPPSGELVFLIRRNSFDEQNEISGRYSWNFQKSTSSFNFTITASQVVDSAVYFCALSVLRMDSSYKLIFGSGTRLLVRP
V domain 2: NAGVTQTPKFRVLKTGQSMTLLCAQDMNHEYMYWYRQDPGMGLRLIHYSVGEGTTAKGEVPDGYNVSRLKKQNFLLGLESAAPSQTSVYFCASSLQGAGQPQHFGDGTRLSILE
B2: TCR2 (TCR, V domains shown)
V domain 1: QKEVEQNSGPLSVPEGAIASLNCTYSDRGSQSFFWYRQYSGKSPELIMSIYSNGDKEDGRFTAQLNKASQYVSLLIRDSQPSDSATYLCAVNIPFSNSGGYQKVTFGTGTKLQVIP
V domain 2: NAGVTQTPKFRVLKTGQSMTLLCAQDMNHEYMYWYRQDPGMGLRLIHYSVGEGTTAKGEVPDGYNVSRLKKQNFLLGLESAAPSQTSVYFCASRHPGQYNQPQHFGDGTRLSILE
B3: TCR1 (TCR, V domains shown)
V domain 1: KQEVTQIPAALSVPEGENLVLNCSFTDSAIYNLQWFRQDPGKGLTSLLLIQSSQREQTSGRLNASLDKSSGRSTLYIAASQPGDSATYLCAAMKTSYDKVIFGPGTSLSVIP
V domain 2: GEEVAQTPKHLVRGEGQKAKLYCAPIKGHSYVFWYQQVLKNEFKFLISFQNENVFDETGMPKERFSAKCLPNSPCSLEIQATKLEDSAVYFCASSQGQGGYGYTFGSGTRLTVVE

Target: MAGE-B2 peptide-MHC (…/HLA-A*02:01) on cells (human)
Assay: cell-based or functional assay

Binder	EC90 (peptide concentration), T2/peptide cytotoxicity assay [nM]	E:T EC50, cytotoxicity against MAGE-B2+ MAGE-A4+ cancer cell lines	E:T EC50, cytotoxicity against MAGE-B2+ MAGE-A4- cancer cell lines
B1	≤ 10	–	–
B2	≤ 10	0.01 E:T ratio	~0.07 E:T ratio
B3	≤ 10	–	–
